# Results taken from publication PMC12205651, “A 36-base hairpin within lncRNA DRAIC, which is modulated by alternative splicing, interacts with the IKKα coiled-coil domain and inhibits NF-κB and tumor cell phenotypes”.
# T1: IKKα-His (UniProt O15111)
# T1 sequence: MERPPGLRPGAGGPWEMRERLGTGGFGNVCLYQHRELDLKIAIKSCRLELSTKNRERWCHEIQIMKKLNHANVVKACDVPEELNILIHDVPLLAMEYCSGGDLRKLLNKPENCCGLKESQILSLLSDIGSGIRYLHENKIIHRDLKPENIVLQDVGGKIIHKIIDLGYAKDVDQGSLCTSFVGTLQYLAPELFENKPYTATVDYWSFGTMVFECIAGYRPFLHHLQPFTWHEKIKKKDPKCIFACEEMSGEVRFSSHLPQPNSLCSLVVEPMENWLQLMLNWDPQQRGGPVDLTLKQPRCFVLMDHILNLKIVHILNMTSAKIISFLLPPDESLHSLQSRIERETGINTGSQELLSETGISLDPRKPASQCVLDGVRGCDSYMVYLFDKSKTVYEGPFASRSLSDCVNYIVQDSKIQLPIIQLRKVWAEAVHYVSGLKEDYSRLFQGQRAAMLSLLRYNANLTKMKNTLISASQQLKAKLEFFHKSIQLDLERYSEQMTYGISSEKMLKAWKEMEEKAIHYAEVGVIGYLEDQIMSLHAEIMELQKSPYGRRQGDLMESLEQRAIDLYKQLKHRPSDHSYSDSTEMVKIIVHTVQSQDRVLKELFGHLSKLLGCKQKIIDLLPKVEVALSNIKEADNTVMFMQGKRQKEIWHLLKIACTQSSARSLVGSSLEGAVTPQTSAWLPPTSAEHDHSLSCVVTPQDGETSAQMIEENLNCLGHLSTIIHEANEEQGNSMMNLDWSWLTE
# T2: MBP-IKKα-6His (UniProt O15111 1-745)
# T2 sequence: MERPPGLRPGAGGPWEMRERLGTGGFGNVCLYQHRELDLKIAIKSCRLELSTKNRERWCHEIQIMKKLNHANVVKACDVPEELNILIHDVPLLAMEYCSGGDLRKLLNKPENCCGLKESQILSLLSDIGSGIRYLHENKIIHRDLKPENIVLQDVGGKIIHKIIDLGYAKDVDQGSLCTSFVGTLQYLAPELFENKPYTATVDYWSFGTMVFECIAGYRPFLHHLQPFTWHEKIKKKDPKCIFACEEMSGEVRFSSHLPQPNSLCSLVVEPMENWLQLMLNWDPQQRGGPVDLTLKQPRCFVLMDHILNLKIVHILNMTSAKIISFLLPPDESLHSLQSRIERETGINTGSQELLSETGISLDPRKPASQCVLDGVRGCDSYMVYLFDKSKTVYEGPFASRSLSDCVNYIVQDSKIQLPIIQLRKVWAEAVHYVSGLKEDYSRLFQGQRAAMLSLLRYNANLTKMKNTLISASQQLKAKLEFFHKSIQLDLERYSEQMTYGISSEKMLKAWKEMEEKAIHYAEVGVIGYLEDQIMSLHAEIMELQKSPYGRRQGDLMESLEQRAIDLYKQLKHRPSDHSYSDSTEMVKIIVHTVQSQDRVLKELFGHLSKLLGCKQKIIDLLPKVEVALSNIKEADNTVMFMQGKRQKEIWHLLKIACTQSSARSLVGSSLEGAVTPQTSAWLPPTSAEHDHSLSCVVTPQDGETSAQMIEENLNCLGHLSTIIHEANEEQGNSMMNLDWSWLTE
# Assays:
# IKKα-His [1] = biological target: T1, IKKα-His; assay: pull-down (in vitro RIP-qPCR); settings: SPR: 10 mM HEPES pH 7.4, 150 mM NaCl, 3 mM EDTA, 0.05% P20, 25 °C; pull-down: 25 mM HEPES pH 7.5, 150 mM NaCl, 0.05% NP-40, 10% glycerol, RT; EMSA: LightShift …
# IKKα-His [2] = biological target: T1, IKKα-His; assay: SPR; settings: SPR: 10 mM HEPES pH 7.4, 150 mM NaCl, 3 mM EDTA, 0.05% P20, 25 °C; pull-down: 25 mM HEPES pH 7.5, 150 mM NaCl, 0.05% NP-40, 10% glycerol, RT; EMSA: LightShift …
# MBP-IKKα-6His = biological target: T2, MBP-IKKα-6His; assay: SPR; biotin RNA immobilized on NeutrAvidin chip, protein analyte; text gives 6.09 ± 1.08 nM; SPR: 10 mM HEPES pH 7.4, 150 mM NaCl, 3 mM EDTA, 0.05% P20, 25 °C; pull-down: 25 mM HEPES pH 7.5, 150 mM NaCl, 0.05% NP-40, 10% glycerol, RT; EMSA: LightShift kit, 22 °C, 25 min; settings: protein: recombinant; tags: N-term MBP (pMAL-c5X), C-term His6; chain copies: 2; label: 5' biotin; hairpin
# GST-NEMO = GST-NEMO (UniProt Q9Y6K9 1-419); assay: SPR; biotin RNA immobilized; SPR: 10 mM HEPES pH 7.4, 150 mM NaCl, 3 mM EDTA, 0.05% P20, 25 °C; pull-down: 25 mM HEPES pH 7.5, 150 mM NaCl, 0.05% NP-40, 10% glycerol, RT; EMSA: LightShift kit, 22 °C, 25 min; settings: protein: recombinant; tags: GST; chain copies: 2; label: 5' biotin; hairpin
# Sequence of GST-NEMO (Q9Y6K9 whole entry): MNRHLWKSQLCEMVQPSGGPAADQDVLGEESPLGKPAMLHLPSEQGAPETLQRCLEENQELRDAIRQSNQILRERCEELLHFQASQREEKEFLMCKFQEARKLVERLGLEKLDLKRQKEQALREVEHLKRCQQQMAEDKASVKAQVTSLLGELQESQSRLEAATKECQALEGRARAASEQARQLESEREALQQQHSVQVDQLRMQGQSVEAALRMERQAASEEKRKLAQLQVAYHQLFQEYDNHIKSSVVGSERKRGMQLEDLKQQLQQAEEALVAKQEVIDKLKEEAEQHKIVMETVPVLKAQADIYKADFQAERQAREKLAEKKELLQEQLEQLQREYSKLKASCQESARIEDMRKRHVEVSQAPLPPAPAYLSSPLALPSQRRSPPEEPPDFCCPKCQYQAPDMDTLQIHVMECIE
molecule,measurement,setting,value
GGGAGAUUGGAAUAACUUGCAGUGUCUUGCAGUAUUGUGAAACCAGCAACUUGUUCACAAUUCUUCUGAAUUUCUUGGGAAAUUUGAAGUGGAGUACCUGUACCAACAUGAAAUGACACGAAUUUAAGUGACGCUCAACAACGAAAAGCAAAAAGAACCAAAGAGGAAGCAACUGAAACAACAUCUGGAUGUAUUUAAAAAUAUACAAUGCCUCCAAAAUCAGGUGUCAUUAAUGAAAAUUCUGAAGAAAUG [DRAIC 705-950],binding,IKKα-His [1],binds
UUGGAAUAACUUGCAGUGCCAGCAACUUGUUCACAA [A+B DRAIC RNA],Kd,IKKα-His [2],0.541 nM
UUGGAAUAACUUGCAGUGCCAGCAACUUGUUCACAA (structured_RNA) [5'-biotin A+B DRAIC RNA],Kd,MBP-IKKα-6His,6.29 ± 1.08 nM
same,binding result,GST-NEMO,no binding
